We go through 1 molecule from paper PMC3762913.

Settings in all cases: remark: other sources report otherwise
Test [1] addresses T1, wild type (WT) human peripheral myelin protein 22 (PMP22) (human), Q01453.
T1 chain: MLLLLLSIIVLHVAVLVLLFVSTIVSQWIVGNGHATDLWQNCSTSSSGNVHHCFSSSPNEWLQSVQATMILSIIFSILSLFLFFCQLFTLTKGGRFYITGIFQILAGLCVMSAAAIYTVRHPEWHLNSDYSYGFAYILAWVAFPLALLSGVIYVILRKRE
Kind of test: cross-linking.

In test [2] the target is T1, wild type (WT) human peripheral myelin …. Kind of test: cross-linking.
Test [3] has the same target. The test is described as follows: SEC.
The target is the same in test [4]. The test is described as follows: cross-linking.
Test [5] has the same target. The test is described as follows: cross-linking.

B1: wild type (WT) human peripheral myelin protein 22 (PMP22), Q01453 1-160 (natural protein)
chain: T1 chain
In the case of B1, the fraction of cross-linked dimer in test [1] turned out to be 0.3; in test [2] it was 0.2; in test [4], 0.6; in test [5], 0.5. Moreover, the stoichiometry N in test [3] and in test [5] was 2 each time.
